Measured values from IntAct's records for PubMed 21637298.

Columns and labels:
[1] = biological target: xrcc4_human XRCC4 (UniProt Q13426)
[2] = biological target: xrcc4_human XRCC4 (UniProt Q13426); remark: listed apart in the source

Chain of xrcc4_human XRCC4 (Q13426 whole entry): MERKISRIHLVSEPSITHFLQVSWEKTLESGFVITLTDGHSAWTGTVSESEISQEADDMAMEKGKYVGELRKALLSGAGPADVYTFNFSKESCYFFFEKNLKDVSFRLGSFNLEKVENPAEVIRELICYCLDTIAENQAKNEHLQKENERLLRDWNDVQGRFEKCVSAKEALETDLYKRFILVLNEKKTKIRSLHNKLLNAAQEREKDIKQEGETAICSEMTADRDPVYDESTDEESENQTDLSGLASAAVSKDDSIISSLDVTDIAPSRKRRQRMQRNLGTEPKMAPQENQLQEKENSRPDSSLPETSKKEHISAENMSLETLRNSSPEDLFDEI

| Substance | effect of a mutation on the interaction [1] | effect of a mutation on the interaction [2] |
| --- | --- | --- |
| Bifunctional polynucleotide phosphatase/kinase (Homo sapiens), Q96T60 S114A | decreasing interaction | – |
| Bifunctional polynucleotide phosphatase/kinase (Homo sapiens), Q96T60 S126A | – | decreasing interaction |
